Source: patent US20210277453

How the values were obtained:
Assay in all cases: cell_activity
[1] = test system: TlpA (Salmonella typhimurium); conditions: thermal derepression of GFP in E. coli, 31.4 to 44.6 C
[2] = test system: TlpA36 (Salmonella typhimurium); conditions: thermal derepression of GFP in E. coli, 31.4 to 44.6 C
[3] = test system: TlpA39 (Salmonella typhimurium); conditions: thermal derepression of GFP in E. coli, 31.4 to 44.6 C
[4] = target: TcI (cI857, A67T) (bacteriophage lambda) (UniProt P03034); conditions: thermal derepression of GFP in E. coli, 34.2 to 40 C; text gives >1,432
[5] = target: TcI38 (bacteriophage lambda) (UniProt P03034); conditions: thermal derepression of GFP in E. coli, 32.4 to 40 C
[6] = target: TcI42 (bacteriophage lambda) (UniProt P03034); conditions: thermal derepression of GFP in E. coli, 32.4 to 45.7 C

Q: For TlpA operator/promoter, 52 bp, which activity [1] is on record?
A: 355 fold

Q: And the activity [2]?
A: 370 fold

Q: What about the activity [3] of the same substance?
A: 1520 fold

Q: For tandem pR/pL operator/promoter, which activity [4] is on record?
A: 1430 fold

Q: What about the activity [5] of the same substance?
A: 1030 fold

Q: And the activity [6]?
A: 1690 fold
